According to patent publication US20190367608A1 (ACTICOR BIOTECH, published 2019):

T1: double mutant GPVI-Fc (S125P, S126Q, G128R, Q133K, T136S, T171D, A172L, H174V) (human, UniProt Q9HCN6 21-269)
T1 construct: also called GPVI double mutant; not shown: human IgG1 Fc domain
T1 chain: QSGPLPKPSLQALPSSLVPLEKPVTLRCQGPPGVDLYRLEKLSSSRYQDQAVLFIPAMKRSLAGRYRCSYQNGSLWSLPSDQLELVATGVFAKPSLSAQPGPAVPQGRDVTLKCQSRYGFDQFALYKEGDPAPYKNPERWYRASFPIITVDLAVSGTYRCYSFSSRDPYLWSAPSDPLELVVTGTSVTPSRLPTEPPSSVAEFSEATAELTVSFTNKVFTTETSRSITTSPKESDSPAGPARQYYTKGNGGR

B1: wild-type soluble GPVI-Fc (Fc fusion)
chain: QSGPLPKPSLQALPSSLVPLEKPVTLRCQGPPGVDLYRLEKLSSSRYQDQAVLFIPAMKRSLAGRYRCSYQNGSLWSLPSDQLELVATGVFAKPSLSAQPGPAVSSGGDVTLQCQTRYGFDQFALYKEGDPAPYKNPERWYRASFPIITVTAAHSGTYRCYSFSSRDPYLWSAPSDPLELVVTGTSVTPSRLPTEPPSSVAEFSEATAELTVSFTNKVFTTETSRSITTSPKESDSPAGPARQYYTKGNGGR
notes: The gene encodes the ectodomain from the first methionine to asparagine 269; also called wild-type GPVI-Fc; not shown: human IgG1 Fc domain

Legend:
Collagen = molecular target: T2, Collagen; assay: ELISA: collagen coated at 20 µg/mL, increasing GPVI-Fc, peroxidase-coupled anti-human Fc, absorbance at 450 nm
T2 construct: Horm collagen (Nycomed) is named only for the platelet aggregation assays; The collagen used in the ELISA is not specified
Method: Microtitration plates were coated with Collagen in PBS (20 μg/mL, 100 μL per well) overnight at 4° C.
(§1) Nonspecific binding sites were saturated with 200 μL of 1% BSA in PBS for 30 min. The plates were then incubated with increasing concentrations of wild-type or double mutant GPVI-Fc preparations (100 μL in PBS containing 0.1% BSA and 0.1% Tween 20) for 30 min. After 3 washing rounds plates were incubated with a peroxidase-coupled secondary human anti-Fc(ab) for 30 min. Finally, 100 μL of the substrate solution were added to each well for 4 min, and the colorimetric reaction stopped by 25 μL NaOH 3 M.

[1] = molecular target: B1; assay: ELISA: GPVI-Fc coated at 20 µg/mL, increasing ACT017, peroxidase-coupled anti-human IgG, absorbance at 450 nm
Method: as §1, with “Microtitration plates were coated with GPVI-Fc in PBS (20 μg/mL, 100 μL per well) overnight at 4° C. Nonspecific” for “Nonspecific”, “ACT017” for “wild-type or double mutant GPVI-Fc”, “anti-IgG” for “anti-Fc(ab)”

[2] = molecular target: T1, double mutant GPVI-Fc (S125P, S126Q, …); assay: ELISA: double mutant GPVI-Fc coated at 20 µg/mL, increasing ACT017, peroxidase-coupled anti-human IgG, absorbance at 450 nm
Method: as §1, with “Microtitration plates were coated with GPVI-Fc in PBS (20 μg/mL, 100 μL per well) overnight at 4° C. Nonspecific” for “Nonspecific”, “ACT017” for “wild-type or double mutant GPVI-Fc”, “anti-IgG” for “anti-Fc(ab)”

EC50 (read off the curve) (Collagen)	EC50 (read off the curve) [1]	binding result [2]	Binder
~0.6 µg/mL			B1
	~30 ng/mL	no binding (tested: about 830 ng/ml)	ACT017 antibody (Fab, V domains shown, Humanized anti-human GPVI; also called the Fab of the invention) VH: QVQLVQSGAEVKKPGASVKVSCKASGYTFTSYNMHWVRQAPGQGLEWMGGIYPGNGDTSYNQKFQGRVTMTRDTSTSTVYMELSSLRSEDTAVYYCARGTVVGDWYFDVWGQGTLVTVSS VL: DIQMTQSPSSLSASVGDRVTITCRSSQSLENSNGNTYLNWYQQKPGKAPKLLIYRVSNRFSGVPSRFSGSGSGTDFTFTISSLQPEDIATYYCLQLTHVPWTFGQGTKVEITR
